Reference: patent publication US6541450B1, “Parathyroid hormone analogues for the treatment of osteoporosis” (National Research Council of Canada, priority 1994, dated 2003)
“Also recorded” adds a separate entry of the source. Where a SMILES comes first, the peptide text is derived from it. Bridges are numbered along the chain shown (N, C = ends). Where no end group is shown, it is not given here. [ ]: non-standard residue; d: D form. Nle = CCCC[C@H](N)C(=O)O

B1: hPTH-(1-31)-NH2 (peptide)
peptide: SVSEIQLMHNLGKHLNSMERVEWLRKKLQDV-NH2
B2: [Tyr^27]cyclo(Glu^22-Lys^26)-hPTH-(1-31)-NH2 (peptide)
peptide: SVSEIQLMHNLGKHLNSMERVEWLRKYLQDV-NH2
modifications: lactam 22-26; N-terminus assumed
SMILES: CC[C@H](C)[C@H](NC(=O)[C@H](CCC(=O)O)NC(=O)[C@H](CO)NC(=O)[C@@H](NC(=O)[C@@H](N)CO)C(C)C)C(=O)N[C@@H](CCC(N)=O)C(=O)N[C@@H](CC(C)C)C(=O)N[C@@H](CCSC)C(=O)N[C@@H](Cc1c[nH]cn1)C(=O)N[C@@H](CC(N)=O)C(=O)N[C@@H](CC(C)C)C(=O)NCC(=O)N[C@@H](CCCCN)C(=O)N[C@@H](Cc1c[nH]cn1)C(=O)N[C@@H](CC(C)C)C(=O)N[C@@H](CC(N)=O)C(=O)N[C@@H](CO)C(=O)N[C@@H](CCSC)C(=O)N[C@@H](CCC(=O)O)C(=O)N[C@@H](CCCNC(=N)N)C(=O)N[C@H](C(=O)N[C@H]1CCC(=O)NCCCC[C@@H](C(=O)N[C@@H](Cc2ccc(O)cc2)C(=O)N[C@@H](CC(C)C)C(=O)N[C@@H](CCC(N)=O)C(=O)N[C@@H](CC(=O)O)C(=O)N[C@H](C(N)=O)C(C)C)NC(=O)[C@H](CCCNC(=N)N)NC(=O)[C@H](CC(C)C)NC(=O)[C@H](Cc2c[nH]c3ccccc23)NC1=O)C(C)C
B3: [Ala^27]cyclo(Glu^22-Lys^26)-hPTH-(1-31)-NH2 (peptide)
peptide: SVSEIQLMHNLGKHLNSMERVEWLRKALQDV-NH2
modifications: lactam 22-26; N-terminus assumed
SMILES: CC[C@H](C)[C@H](NC(=O)[C@H](CCC(=O)O)NC(=O)[C@H](CO)NC(=O)[C@@H](NC(=O)[C@@H](N)CO)C(C)C)C(=O)N[C@@H](CCC(N)=O)C(=O)N[C@@H](CC(C)C)C(=O)N[C@@H](CCSC)C(=O)N[C@@H](Cc1c[nH]cn1)C(=O)N[C@@H](CC(N)=O)C(=O)N[C@@H](CC(C)C)C(=O)NCC(=O)N[C@@H](CCCCN)C(=O)N[C@@H](Cc1c[nH]cn1)C(=O)N[C@@H](CC(C)C)C(=O)N[C@@H](CC(N)=O)C(=O)N[C@@H](CO)C(=O)N[C@@H](CCSC)C(=O)N[C@@H](CCC(=O)O)C(=O)N[C@@H](CCCNC(=N)N)C(=O)N[C@H](C(=O)N[C@H]1CCC(=O)NCCCC[C@@H](C(=O)N[C@@H](C)C(=O)N[C@@H](CC(C)C)C(=O)N[C@@H](CCC(N)=O)C(=O)N[C@@H](CC(=O)O)C(=O)N[C@H](C(N)=O)C(C)C)NC(=O)[C@H](CCCNC(=N)N)NC(=O)[C@H](CC(C)C)NC(=O)[C@H](Cc2c[nH]c3ccccc23)NC1=O)C(C)C
B4: [Ile^27]cyclo(Glu^22-Lys^26)-hPTH-(1-31)-NH2 (peptide)
peptide: SVSEIQLMHNLGKHLNSMERVEWLRKILQDV-NH2
modifications: lactam 22-26; N-terminus assumed
SMILES: CC[C@H](C)[C@H](NC(=O)[C@@H]1CCCCNC(=O)CC[C@H](NC(=O)[C@@H](NC(=O)[C@H](CCCNC(=N)N)NC(=O)[C@H](CCC(=O)O)NC(=O)[C@H](CCSC)NC(=O)[C@H](CO)NC(=O)[C@H](CC(N)=O)NC(=O)[C@H](CC(C)C)NC(=O)[C@H](Cc2c[nH]cn2)NC(=O)[C@H](CCCCN)NC(=O)CNC(=O)[C@H](CC(C)C)NC(=O)[C@H](CC(N)=O)NC(=O)[C@H](Cc2c[nH]cn2)NC(=O)[C@H](CCSC)NC(=O)[C@H](CC(C)C)NC(=O)[C@H](CCC(N)=O)NC(=O)[C@@H](NC(=O)[C@H](CCC(=O)O)NC(=O)[C@H](CO)NC(=O)[C@@H](NC(=O)[C@@H](N)CO)C(C)C)[C@@H](C)CC)C(C)C)C(=O)N[C@@H](Cc2c[nH]c3ccccc23)C(=O)N[C@@H](CC(C)C)C(=O)N[C@@H](CCCNC(=N)N)C(=O)N1)C(=O)N[C@@H](CC(C)C)C(=O)N[C@@H](CCC(N)=O)C(=O)N[C@@H](CC(=O)O)C(=O)N[C@H](C(N)=O)C(C)C
B5: cyclo(Glu^22-Lys^26)-hPTH-(1-31)-NH2 (peptide)
peptide: SVSEIQLMHNLGKHLNSMERVEWLRKKLQDV-NH2
modifications: lactam 22-26; N-terminus assumed
SMILES: CC[C@H](C)[C@H](NC(=O)[C@H](CCC(=O)O)NC(=O)[C@H](CO)NC(=O)[C@@H](NC(=O)[C@@H](N)CO)C(C)C)C(=O)N[C@@H](CCC(N)=O)C(=O)N[C@@H](CC(C)C)C(=O)N[C@@H](CCSC)C(=O)N[C@@H](Cc1c[nH]cn1)C(=O)N[C@@H](CC(N)=O)C(=O)N[C@@H](CC(C)C)C(=O)NCC(=O)N[C@@H](CCCCN)C(=O)N[C@@H](Cc1c[nH]cn1)C(=O)N[C@@H](CC(C)C)C(=O)N[C@@H](CC(N)=O)C(=O)N[C@@H](CO)C(=O)N[C@@H](CCSC)C(=O)N[C@@H](CCC(=O)O)C(=O)N[C@@H](CCCNC(=N)N)C(=O)N[C@H](C(=O)N[C@H]1CCC(=O)NCCCC[C@@H](C(=O)N[C@@H](CCCCN)C(=O)N[C@@H](CC(C)C)C(=O)N[C@@H](CCC(N)=O)C(=O)N[C@@H](CC(=O)O)C(=O)N[C@H](C(N)=O)C(C)C)NC(=O)[C@H](CCCNC(=N)N)NC(=O)[C@H](CC(C)C)NC(=O)[C@H](Cc2c[nH]c3ccccc23)NC1=O)C(C)C
B6: α-acetyl-[Leu^27]cyclo(Glu^22-Lys^26)-hPTH-(1-31)-NH2 (peptide)
peptide: Ac-SVSEIQLMHNLGKHLNSMERVEWLRKLLQDV-NH2
modifications: lactam 22-26
SMILES: CC[C@H](C)[C@H](NC(=O)[C@H](CCC(=O)O)NC(=O)[C@H](CO)NC(=O)[C@@H](NC(=O)[C@H](CO)NC(C)=O)C(C)C)C(=O)N[C@@H](CCC(N)=O)C(=O)N[C@@H](CC(C)C)C(=O)N[C@@H](CCSC)C(=O)N[C@@H](Cc1c[nH]cn1)C(=O)N[C@@H](CC(N)=O)C(=O)N[C@@H](CC(C)C)C(=O)NCC(=O)N[C@@H](CCCCN)C(=O)N[C@@H](Cc1c[nH]cn1)C(=O)N[C@@H](CC(C)C)C(=O)N[C@@H](CC(N)=O)C(=O)N[C@@H](CO)C(=O)N[C@@H](CCSC)C(=O)N[C@@H](CCC(=O)O)C(=O)N[C@@H](CCCNC(=N)N)C(=O)N[C@H](C(=O)N[C@H]1CCC(=O)NCCCC[C@@H](C(=O)N[C@@H](CC(C)C)C(=O)N[C@@H](CC(C)C)C(=O)N[C@@H](CCC(N)=O)C(=O)N[C@@H](CC(=O)O)C(=O)N[C@H](C(N)=O)C(C)C)NC(=O)[C@H](CCCNC(=N)N)NC(=O)[C@H](CC(C)C)NC(=O)[C@H](Cc2c[nH]c3ccccc23)NC1=O)C(C)C
B7: [Nle^8,18, Leu^27]cyclo(Glu^22-Lys^26)-hPTH-(1-31)-NH2 (peptide)
peptide: SVSEIQL[Nle]HNLGKHLNS[Nle]ERVEWLRKLLQDV-NH2
modifications: lactam 22-26; N-terminus assumed
SMILES: CCCC[C@H](NC(=O)[C@H](CO)NC(=O)[C@H](CC(N)=O)NC(=O)[C@H](CC(C)C)NC(=O)[C@H](Cc1c[nH]cn1)NC(=O)[C@H](CCCCN)NC(=O)CNC(=O)[C@H](CC(C)C)NC(=O)[C@H](CC(N)=O)NC(=O)[C@H](Cc1c[nH]cn1)NC(=O)[C@H](CCCC)NC(=O)[C@H](CC(C)C)NC(=O)[C@H](CCC(N)=O)NC(=O)[C@@H](NC(=O)[C@H](CCC(=O)O)NC(=O)[C@H](CO)NC(=O)[C@@H](NC(=O)[C@@H](N)CO)C(C)C)[C@@H](C)CC)C(=O)N[C@@H](CCC(=O)O)C(=O)N[C@@H](CCCNC(=N)N)C(=O)N[C@H](C(=O)N[C@H]1CCC(=O)NCCCC[C@@H](C(=O)N[C@@H](CC(C)C)C(=O)N[C@@H](CC(C)C)C(=O)N[C@@H](CCC(N)=O)C(=O)N[C@@H](CC(=O)O)C(=O)N[C@H](C(N)=O)C(C)C)NC(=O)[C@H](CCCNC(=N)N)NC(=O)[C@H](CC(C)C)NC(=O)[C@H](Cc2c[nH]c3ccccc23)NC1=O)C(C)C
B8: [Nle^27]cyclo(Glu^22-Lys^26)-hPTH-(1-31)-NH2 (peptide)
peptide: SVSEIQLMHNLGKHLNSMERVEWLRK[Nle]LQDV-NH2
modifications: lactam 22-26; N-terminus assumed
SMILES: CCCC[C@H](NC(=O)[C@@H]1CCCCNC(=O)CC[C@H](NC(=O)[C@@H](NC(=O)[C@H](CCCNC(=N)N)NC(=O)[C@H](CCC(=O)O)NC(=O)[C@H](CCSC)NC(=O)[C@H](CO)NC(=O)[C@H](CC(N)=O)NC(=O)[C@H](CC(C)C)NC(=O)[C@H](Cc2c[nH]cn2)NC(=O)[C@H](CCCCN)NC(=O)CNC(=O)[C@H](CC(C)C)NC(=O)[C@H](CC(N)=O)NC(=O)[C@H](Cc2c[nH]cn2)NC(=O)[C@H](CCSC)NC(=O)[C@H](CC(C)C)NC(=O)[C@H](CCC(N)=O)NC(=O)[C@@H](NC(=O)[C@H](CCC(=O)O)NC(=O)[C@H](CO)NC(=O)[C@@H](NC(=O)[C@@H](N)CO)C(C)C)[C@@H](C)CC)C(C)C)C(=O)N[C@@H](Cc2c[nH]c3ccccc23)C(=O)N[C@@H](CC(C)C)C(=O)N[C@@H](CCCNC(=N)N)C(=O)N1)C(=O)N[C@@H](CC(C)C)C(=O)N[C@@H](CCC(N)=O)C(=O)N[C@@H](CC(=O)O)C(=O)N[C@H](C(N)=O)C(C)C

Tests used:
[1] = tested on: anesthetized female Sprague-Dawley rats; assay: Hypotensive effect, tail artery pressure in anaesthetized rats
Experimental: Female Sprague-Dawley rats (weighing over 290 g) were anaesthetized with intraperitoneally injected sodium pentobarbital (65 mg/kg body weight). Rectal temperature was monitored with a YS1402 thermistor (Yellow Springs Instrument Co., Inc. Yellow Springs, Ohio) and maintained between 36.0 and 38.5° C. throughout the experiment. Ear pinna temperature was also monitored using a YSi banjo thermistor. The tail artery was exposed to cannulated with a Jelco 25-gIV catheter (Johnson and Johnson Medical Inc., Arlington, Tex.) and connected to a Statham pressure transducer, the signals from which were recorded digitally with a Biopac Systems MP100 Monitor (Harvard Instruments, Saint Laurent, QC, Canada). For intravenous injection of PTH or one of its fragments, a femoral vein was also exposed. After surgery, the rat was allowed to stabilize for 8 min after which PTH or one of its fragments (dissolved in acidified saline containing 0.001 N HCl) was injected into the femoral vein or under the skin of the abdomen. Data were collected for 12 min after intravenous injection or for 22 min after subcutaneous injection.

PTH receptor = PTH receptor (rat (ROS 17/2 rat osteosarcoma cell …, UniProt P25961)); assay: cell-based or functional assay
[2] = intravenous, 0.8 nmol/100 g of body weight

Molecule	Adenylyl Cyclase (EC50) (PTH receptor) [nM]	also measured
CC[C@H](C)[C@H](NC(=O)[C@H](CCC(=O)O)NC(=O)[C@H](CO)NC(=O)[C@@H](NC(=O)[C@@H](N)CO)C(C)C)C(=O)N[C@@H](CCC(N)=O)C(=O)N[C@@H](CC(C)C)C(=O)N[C@@H](CCSC)C(=O)N[C@@H](Cc1c[nH]cn1)C(=O)N[C@@H](CC(N)=O)C(=O)N[C@@H](CC(C)C)C(=O)NCC(=O)N[C@@H](CCCCN)C(=O)N[C@@H](Cc1c[nH]cn1)C(=O)N[C@@H](CC(C)C)C(=O)N[C@@H](CC(N)=O)C(=O)N[C@@H](CO)C(=O)N[C@@H](CCSC)C(=O)N[C@@H](CCC(=O)O)C(=O)N[C@@H](CCCNC(=N)N)C(=O)N[C@H](C(=O)N[C@H]1CCC(=O)NCCCC[C@@H](C(=O)N[C@@H](CC(C)C)C(=O)N[C@@H](CC(C)C)C(=O)N[C@@H](CCC(N)=O)C(=O)N[C@@H](CC(=O)O)C(N)=O)NC(=O)[C@H](CCCNC(=N)N)NC(=O)[C@H](CC(C)C)NC(=O)[C@H](Cc2c[nH]c3ccccc23)NC1=O)C(C)C [compound 8, [Leu^27]cyclo(Glu^22Lys^26)-hPTH-(1-30)-NH2] (H-SVSEIQLMHNLGKHLNSMERVEWLRKLLQD-NH2; lactam 22-26)		total blood pressure drop versus other analogues ([1]; subcutaneously or intravenously, 0.8 nmol/100 g of body weight): not significantly different (p>0.05)
hPTH-(7-84) [reference compound]		hypotensive action, in words ([1]; intravenous injection): not significantly hypotensive; also recorded: did not significantly affect tail artery pressure; reduction of tail artery pressure [1, 2]: 3.28±1.0 mm Hg; time to maximum drop in tail artery pressure [1, 2]: 9.8 ± 2.0 min
B1	20	
B2	9	
B3	9	
B4	9	
B5	17	
B6	24	
B7	6	
B8	9	
